Our source for the inhibition of VEGF-stimulated HUVEC growth (CellTiter-Glo) values is publication PMC4623440.

This experiment concerns the target human VEGF-A165 (human).

“FcD2, monospecific fusion of hinge, Fc, linker and VEGFR1 D2 (from UniProt P17948 129-229) (Fc fusion)” registered an inhibition of VEGF-stimulated HUVEC growth (CellTiter-Glo) of 2.1 nM.
